# Where “and” joins values, the source holds several entries; their conditions need not be identical. Equal entries are not always repeated. Where two headings read alike, the source gives them in different places.
# T1: ENT2 (Homo sapiens, UniProt Q14542)
# T1 sequence (Q14542 1-456): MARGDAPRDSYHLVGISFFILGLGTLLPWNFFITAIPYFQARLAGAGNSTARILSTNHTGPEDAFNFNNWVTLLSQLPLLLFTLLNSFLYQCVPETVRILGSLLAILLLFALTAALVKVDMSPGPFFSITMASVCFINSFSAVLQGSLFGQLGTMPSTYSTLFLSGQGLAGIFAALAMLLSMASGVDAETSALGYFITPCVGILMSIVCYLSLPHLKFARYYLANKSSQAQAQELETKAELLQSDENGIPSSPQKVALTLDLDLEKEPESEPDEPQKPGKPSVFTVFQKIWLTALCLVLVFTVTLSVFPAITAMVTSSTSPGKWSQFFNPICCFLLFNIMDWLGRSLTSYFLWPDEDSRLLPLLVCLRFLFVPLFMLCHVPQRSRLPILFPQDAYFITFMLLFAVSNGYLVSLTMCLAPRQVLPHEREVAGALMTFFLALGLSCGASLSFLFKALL
# B1: ENT2 (Homo sapiens) (protein)
# chain: T1 sequence (Q14542 1-456)
# notes: The complete ORF of ENT1 (amplified using forward primer); expressed in transfected cells; host or cells: Xenopus laevis oocytes injected with in vitro-transcribed capped mRNA from pOX-hENT2
# What was measured:
# ENT3 = tested on: ENT3; parameters: method as in PMID 34144123; conditions: read-out: km of ENT3 for Ado transport; cited from earlier work
# ENT2 = biological target: T1, ENT2; conditions: cited from earlier work
# [1] = substrate: C[C@H](CCC(=O)O)[C@H]1CC[C@H]2[C@@H]3CC[C@@H]4C[C@H](O)CC[C@]4(C)[C@H]3C[C@H](O)[C@]12C; test: Radiolabeled BA transport in ENT2 mRNA-injected Xenopus oocytes; type: cell-based, human; conditions: pH 7.4
# Description: (§1) We used a Xenopus oocyte-based transport assay that was previously used to examine BA transport by plasma membrane–directed ENT3 with a truncated N-terminus (that harbors lysosomal targeting motif) to experimentally verify whether ENT2 is capable of translocating BAs across the cell membrane ([24]). We tested both ENT1 and ENT2 along with CNT2, a purine nucleoside-specific concentrative transporter, to investigate their capacities to transport radiolabeled BAs. […] Transport was measured at pH 7.4, which is the closest pH to the pH of the extracellular fluid in which cells are exposed to solutes such as BAs to conduct plasma membrane transport ([29]).
# (§2) The generated pOX expression constructs were linearized with either the Not1 or Sac1 restriction enzymes. The digested products were purified via phenol‒chloroform extraction. The mRNAs were synthesized using mMESSAGE mMACHINE (Ambion) transcription kits according to the manufacturer’s instructions. The mRNAs were purified via lithium precipitation. Oocytes were procured from Ecocyte. Prior to experiments, procured oocytes were defolliculated by treating with collagenase A-OR II solution followed by washing with Barth’s solution. Following microscopic verification, selected oocytes were incubated to recover overnight at 25 °C in a shaker incubator. Fifty nanoliters (400–800 ng/μl) of equal amounts of mRNAs were injected into defolliculated oocytes the next day. Expression of plasmids was analyzed after RNA isolation from oocyte extracts and conducting qPCR analysis with gene-specific primers as described earlier ([30]). The injected oocytes were incubated at 15 °C for 24 h before transport assays were performed. The uptake of radiolabeled substrates was measured after a 30 min incubation in transport buffer (100 mM NaCl, 2 mM KCl, 1 mM CaCl2, 1 mM MgCl2, and 10 mM Hepes, pH 7.4) at room temperature. Uptake was terminated by washing the oocytes three times with arrest buffer containing 20 mM uridine. Individual oocytes were shaken overnight in 10% SDS for complete dissolution, and then the radioactivity was quantified with a Beckman liquid scintillation counter. The data are presented as the mean ± SD (n = 8–12 oocytes). A representative experiment from 3 to 5 independent experiments is presented.
# [2] = substrate: C[C@H](CCC(=O)O)[C@H]1CC[C@H]2[C@@H]3[C@H](O)C[C@@H]4C[C@H](O)CC[C@]4(C)[C@H]3C[C@H](O)[C@]12C; test: as above; type: cell-based, human; conditions: pH 7.4
# Description: as §1, §2
# [3] = other: printed in picture Fig. 2B
molecule,measurement,setting,value
"Nc1ncnc2c1ncn2[C@@H]1O[C@H](CO)[C@@H](O)[C@H]1O [Ado, adenosine]",Km,ENT3,2000 µM
same,Km,ENT2; read-out: Km of ENT2 for Ado transport,~100 µM
Nc1nc2c(ncn2[C@@H]2O[C@H](CO)[C@@H](O)[C@H]2O)c(=O)[nH]1 [guanosine],Km,"ENT2; cloned ENT2-expressing ENT-deficient PK15 cells, read-out: km for guanosine, ENT2",2700 µM
B1,Km,"[1]; other: oocytes, Fig. 2B",491 µM
same,Km,[1]; [3],500 µM
same,Km,"[2]; other: oocytes, Fig. 2B",195 µM and 200 µM
same,Km,[2]; [3],200 µM

# — paper PMC12152883, “Bile acids inhibit equilibrative adenosine transport to alter adenosine receptor signaling in cholestasis” (The Journal of Biological Chemistry, 2025)
